{
  "source": "the DeepSol protein solubility set",
  "data": [
    {"test": "soluble on expression in E. coli; label from the status in PepcDB or PDB records", "values": [
      {"sequence": "MGSDKIHHHHHHAELPLEEGVSVRFEIKRDGVMSRAPGDAALSVNRILILPFRKTDEASSNDAANFVPEYSAARQLDVNSFPAVVTMLTLSAASTYQLLVIGYNRSDYDFASGGGATKRFNIGSTGNPATLANLYLQPVNPTVVPEFFSCFGNGYRGTTLVGPIFKPSQINYVTGTLKRLVSGFTLEVTNVPAYVNSMTLIAEQLVTATRATDGTALTWQTAGDGGTKTLATQAPVSGKVSFNQFLLAIPDSRKTLFYLDVSYGIFTERYTVKLPDTPGVVSGNRIIFTPNHWVKVTGSYANINIGFTLAGNINLDDNAWDGLQ", "soluble on expression in E. coli": "not soluble"},
      {"sequence": "MKHQHQHQHQHQHQQPLNEEFRPEMLQGKKVIVTGASKGIGREMAYHLAKMGAHVVVTARSKETLQKVVSHCLELGAASAHYIAGTMEDMTFAEQFVAQAGKLMGGLDMLILNHITNTSLNLFHDDIHHVRKSMEVNFLSYVVLTVAALPMLKQSNGSIVVVSSLAGKVAYPMVAAYSASKFALDGFFSSIRKEYSVSRVNVSITLCVLGLIDTETAMKAVSGIVHMQAAPKEECALEIIKGGALRQEEVYYDSSLWTTLLIRNPSRKILEFLYSTSYNMDRFINK", "soluble on expression in E. coli": "soluble"},
      {"sequence": "MAHVAEWKKKEVEELAKLIKSYPVIALVDVSSMPAYPLSQMRRLIRENGGLLRVSRNTLIELAIKKAAKELGKPELEKLVEYIDRGAGILVTNMNPFKLYKFLQQNRQPAPAKPGAVVPKDVVVPAGPTPLAPGPIVGQMQALGIPARIEKGKVTIQKDTTVLKAGEVITPELANILNALGIQPLEVGLDVLAVYEDGIVYTPDVLAIDEQEYIDMLQKAYMHAFNLAVNIAYPTPETIEAIIQKAFLNAKTVAIEAGYITKETIQDIIGRAFRAMLLLAQQLP", "soluble on expression in E. coli": "soluble"},
      {"sequence": "MLFDSLPRPSERIAPGVAHLPGWLGVDKQAELVREIREIARTYADTPMAMLRPTLKSGGQMSVYQLHLGRYWHYPSYRYIDKIAGTTVPPVPDSLAALAPEALRAAAEVAEELAPWVETFVPEMVLVNYYPPGSRMGMHVDEFEESRAPVISVSIGDEALFRMGHTESRTQPWDDVTLCSGDLVVFGGPKRFAYHGVVRVNDATLPDGCGLEQGRINITIRQVSAAPNVQGR", "soluble on expression in E. coli": "not soluble"},
      {"sequence": "MIVRAINYESLHIDDRFGSIEELKTKISQKYGIPINSQHIIFNGKFYVLGIFDSPLTVSSDTYTNPLGCFGCPDSLFNDLAGNGMTTDEIREYAFPHKDDPAKREGPDLSSVIDTRAIAKRITENRYEDAYKIPNDLSEKEKTIIMESSGEYIDLVLKQIKEILRSNTKY", "soluble on expression in E. coli": "not soluble"},
      {"sequence": "QLVLVKRSTPPVAVIWSAPDCPYCRKLEKTLEQENASVYVVPVGVAENGFRQAARVYCADDPSQAWRKVMQGSEINGRAKTSCQYPRDMLNDIGFFLGMGRMATPIVVFADGSTVIGWNDQNAWMLLRKKISEQIFFND", "soluble on expression in E. coli": "not soluble"},
      {"sequence": "MIEIKNVNKVFYQGSKEILALKDINLHIAKGTIFGVIGSSGAGKSTLIRCVNMLEAPSSGSIIVDGVDLTTLSKKQLVETRRNIGMIFQHFNLLSSRTVFDNVALPLELAGKDKSQITTKVTELLKLVGLADKHESYPSNLSGGQKQRVAIARALASDPSVLLCDEATSALDPATTQSILELLKEINRKLNITILLITHEMEVVKSICHEVAIIGGGELVEKGTVGDIFAHPKTELAHEFIRSTLDLSIPEDYQARLQPNRVEGSYPLVRMEFTGATVDAPLMSQISRKYNIDVSILSSDLDYAGGVKFGMMVAELFGNEQDDSAAIEYLREHNVKVEVLGYVL", "soluble on expression in E. coli": "not soluble"},
      {"sequence": "MDPKAEGNGENITETAAGNVETSDFVNLKRQKREGVNSTGMSEIDMTGSQETPEHNMHGSPTHTDDLGPRLDADMLDSQSSHVSSSAQGNRSEVENELSNLFAKMALPGHDRRTDEYILVRQTGQDKFAGTTKCNLDHLPTKAEFNASCRLYRDGVGNYYPPPLAFERIDLPEQLAAQLHNLEPREQSKQCFQYKLEVWNRAHAEMGITGTDIFYQTDKNIKLDRNYKLRPEDRYIQTEKYGRREIQKRYEHQFQAGSLLPDILIKTPQNDIHFSYRFAGDAYANKRFEEFERAIKTKYGSDTEIKLKSKSGIMHDSKYLESWERGSADIRFAEFAGENRAHNKQFPAATVNMGRQPDGQGGMTRDRHVSVDYLLQNLPNSPWTQALKEGKLWDRVQVLARDGNRYMSPSRLEYSDPEHFTQLMDQVGLPVSMGRQSHANSVKFEQFDRQAAVIVADGPNLREVPDLSPEKLQQLSQKDVLIADRNEKGQRTGTYTNVVEYERLMMKLPSDAAQLLAEPSDRYSRAFVRPEPALPPISDSRRTYESRPRGPTVNSL", "soluble on expression in E. coli": "soluble"},
      {"sequence": "GMNRLRTSFQQTTGQISGHGKRNVGVLKTAFAAVADEMASDQYGTGAIIEPFEQKFADVLGMDDAVFFPSGTMAQQVALRIWSDETDNRTVAYHPLCHLEIHEQDGLKELHPIETILVGAADRLMTLDEIKALPDIACLLLELPQREIGGVAPAFSELETISRYCRERGIRLHLDGARLFEMLPYYEKTAAEIAGLFDSIYISFYKGLGGIAGAILAGPAAFCQTARIWKRRYGGDLISLYPYIVSADYYYELRKDRMGQYYEQAKQLAEQFNALPGVHTTPEVPVSNMFHLHFDGQAADISPKLEQVQEETGLGFVGYLVDKDGYCSTEISVGDAYGELDQQTRDAGFARLRQAFS", "soluble on expression in E. coli": "soluble"},
      {"sequence": "MDNDRDTVEFWSSLFQSFADSEPKDNPYPVVRSPIMTMSTPMAIDEPVEPWKVLEYGGKEVRPMAIDEPAEPWKALEYGGKDVRPMAIDVPAEPWKVGGKEAQPANAAAEAGYKNVNTDQEKSTQKATEKVIM", "soluble on expression in E. coli": "soluble"},
      {"sequence": "MGSDKIHHHHHHMKADLHVHTCLSPCADLLMIPPVVERASGDVQILGIVDHNSAKNVPAFLKMKKLVVPGIEIQTVEDVHVLGFFSDIESALKVTKIVYEHLPSVKHDHEKMGYQLFVDEKGNYTGYEDVPLGFPSDLTLSQAVELIRSFGGIPVYAHVEKRFGVLYQLGFFPDLEIPVAEVVSREGKENAQKKNLRVIVTSDAHFPSDIGRRYIDISGAPNSPEEVLKKILNSEYTLGGVLNW", "soluble on expression in E. coli": "not soluble"},
      {"sequence": "DIRPSKLLTWCQQQTEGYQHVNVTDLTTSWRSGLALCAIIHRFRPELINFDSLNEDDAVENNQLAFDVAEREFGIPPVTTGKEMASAQEPDKLSMVMYLSKFYELFRGTPLRPV", "soluble on expression in E. coli": "soluble"},
      {"sequence": "MNVLLMAYGTPYAPEEVEPYYTDIRRGRRPSEELLKELAERYEAIGKSPLNEITLAQAVRLQALLNLEAPPYPKRLLSPFPPRAPHGPARVYVGTKHWHPSIGEAVAAMHEDGVRRAVAIVAAPHYSLRSVAEYREKVDSALKALPEPIDFVWVESYEAHPGLIAAYARRLEEVIWRLKNPGKAAYVFTAHSIPLSAVEKGDPYPRQVEKTAELIAKKLALPRFHVAYQSAGRTPEPWLGPDINELLRTLKEEGYEEVAVQAVGFPADHLEVFYDLDLEAQATARELGLRLLRARSLNADLDYIQVLKDLVEAAWPR", "soluble on expression in E. coli": "soluble"},
      {"sequence": "QETGISMIGERTNSNGSKAFREAMLSGDWEKCVDIAKQQTRDGAHMLDLCVDYVGRDGTADMATLAALLATSSTLPIMIDSTEPEVIRTGLEHLGGRSIVNSVNFEDGDGPESRYQRIMKLVKQHGAAVVALTIDEEGQARTAEHKVRIAKRLIDDITGSYGLDIKDIVVDCLTFPISTGQEETRRDGIETIEAIRELKKLYPEIHTTLGLSNISFGLNPAARQVLNSVFLNECIEAGLDSAIAHSSKILPMNRIDDRQREVALDMVYDRRTEDYDPLQEFMQLFEGVSAAD", "soluble on expression in E. coli": "not soluble"},
      {"sequence": "MSLKQQVPLSTATVSMVHSVPELMVSSEQAEQLGREDQQRLHRNRKLVLMVDLDQTLIHTTEQHCQQMSNKGIFHFQLGRGEPMLHTRLRPHCKDFLEKIAKLYELHVFTFGSRLYAHTIAGFLDPEKKLFSHRILSRDECIDPFSKTGNLRNLFPCGDSMVCIIDDREDVWKFAPNLITVKKYVYFQGTGDMNAPPGSRESQTRKKVNHSRGTEEGHHHHHH", "soluble on expression in E. coli": "not soluble"},
      {"sequence": "MYSDLAGKVVVITGSATGLGRAMGVRFAKEKAKVVINYRSRESEAHDVLEEIKKVGGEAIAVKGDVTVESDVVNLIQSAVKEFGTLDVMINNAGIENAVPSHEMPLEDWNKVINTNLTGAFLGSREAIKYFVEHDIKGSIINMSSVHEKIPWPLFVHYAASKGGVKLMTETLAMEYAPKGIRVNNIGPGAINTPINAEKFADPKKRADVESMIPMGYIGKPEEIAAVATWLASSEASYVTGITLFADGGMTLYPSFQAGRG", "soluble on expression in E. coli": "not soluble"},
      {"sequence": "MSSNNRKKLLLMGRSGSGKSSMRSIIFSNYSAFDTRRLGATIDVEHSHLRFLGNMTLNLWDCGGQDVFMENYFTKQKDHIFQMVQVLIHVFDVESTEVLKDIEIFAKALKQLRKYSPDAKIFVLLHKMDLVQLDKREELFQIMMKNLSETSSEFGFPNLIGFPTSIWDESLYKAWSQIVCSLIPNMSNHQSNLKKFKEIMNALEIILFERTTFLVICSSNGENSNENHDSSDNNNVLLDPKRFEKISNIMKNFKQSCTKLKSGFKTLILNNNIYVSELSSNMVCFIVLKDMNIPQELVLENIKKAKEFFQ", "soluble on expression in E. coli": "soluble"},
      {"sequence": "MSLSDDVALPLEFTDAAANKVKSLIADEDNPNLKLRVYITGGGCSGFQYGFTFDDQVNEGDMTIEKQGVGLVVDPMSLQYLVGGSVDYTEGLEGSRFIVTNPNAKSTCGCGSSFSIEGGSHHHHHH", "soluble on expression in E. coli": "soluble"},
      {"sequence": "SAQKVEAKGGKGGNQWDDGSDHDAVTKIQVAVGGMGIQYIQFDYVKNGQTEQTPLRGIKGSTIPTDPFVINHPEEHLVSIEIWYKPDGLIQGLRFISNKKTSRFIGYDRGTRSFLQVQDKKIIGFHGSAGDNLNSLGAYFAPLTIPLTPAKPLPALGSDDGTAWDDGAYVGVKKVYVGQAQDGISAVKFVYDKSPEEVTGEEHGKSTLLGFEEFVLDYPSEYIIAVEGTYDKIFGSDGSVITMLRFKTNKQTSPPFGLEAGTAFELKEEGHKIVGFHGRADALLHKIGVHVRPVSN", "soluble on expression in E. coli": "soluble"},
      {"sequence": "MVIKFSSNTTNPPTMIYMGVDKVENEDLIKYGWPEDVWFHVDKLSSAHVYLRLHSGMTIDSIPEALLIDCCQLVKQNSIEGCKLNNVAIVYTMWSNLKKTGDMAVGQVGFHSHKQVKHTVVPTKINEIVNRLEKTRRKDDIDYKEERDARDAKERQKLKKLEQERKDREKKEMLAQNEKKRIEGYEDVDWDAGATTRNDVDPGNLSDDFM", "soluble on expression in E. coli": "not soluble"},
      {"sequence": "MAKRVVSVSLGSSRRDAAAEVELLGERVLLERRGTDGDFQRALCLIQELDGKVDAIGLGGIDLYLFAGGRRYAIRDALRLKEAAKKTPVVDGSGLKHTLERRAVRELASLIDWRKTKVLLPSAVDRFGLAEALDEAGARVLYGDFIFALGLPIPLYSLSFLQKLAFLLLPLFTRLPFSVLYPTGKKQEEVREDWRARYYAWADVVAGDWHYVRRHMPKDMRGKTVITNTTTEEDVAFLRERGVRRLVTTTPRLGGRSFGTNVMEAMLVALAGRELGEADYLRYIDQIGLKPQVLELKGQA", "soluble on expression in E. coli": "soluble"},
      {"sequence": "MGSDKIHHHHHHMSIPSTLLGLSGGQFNEIDWSNCAIVMIDFQNEYVDGAMPLGDAGNKATANARLLLYKARNKNIPIFHVAHHGQDNDKIFNPLSSKVDIIDSLQPLDDEKTIIKMHPNAFYDTELQALITSAGKQQIIFAGFMSHMCVSSSVRAAFDLGFESFVCHDACATRDLPSVAGQVITASTVHDSAMAALQDRFAALVATDKLTNS", "soluble on expression in E. coli": "not soluble"}
    ]}
  ]
}
